# Experimental data: IntAct's records for PubMed 17572682
# B1: Protein CBFA2T1 (Homo sapiens), Q06455 (parent)
# chain: MISVKRNTWRALSLVIGDCRKKGNFEYCQDRTEKHSTMPDSPVDVKTQSRLTPPTMPPPPTTQGAPRTSSFTPTTLTNGTSHSPTALNGAPSPPNGFSNGPSSSSSSSLANQQLPPACGARQLSKLKRFLTTLQQFGNDISPEIGERVRTLVLGLVNSTLTIEEFHSKLQEATNFPLRPFVIPFLKANLPLLQRELLHCARLAKQNPAQYLAQHEQLLLDASTTSPVDSSELLLDVNENGKRRTPDRTKENGFDREPLHSEHPSKRPCTISPGQRYSPNNGLSYQPNGLPHPTPPPPQHYRLDDMAIAHHYRDSYRHPSHRDLRDRNRPMGLHGTRQEEMIDHRLTDREWAEEWKHLDHLLNCIMDMVEKTRRSLTVLRRCQEADREELNYWIRRYSDAEDLKKGGGSSSSHSRQQSPVNPDPVALDAHREFLHRPASGYVPEEIWKKAEEAVNEVKRQAMTELQKAVSEAERKAHDMITTERAKMERTVAEAKRQAAEDALAVINQQEDSSESCWNCGRKASETCSGCNTARYCGSFCQHKDWEKHHHICGQTLQAQQQGDTPAVSSSVTPNSGAGSPMDTPPAATPRSTTPGTPSTIETTPR
# Variants of: B1
# Conditions: with ncor1_human NCOR1, O75376
# Sequence of ncor1_human NCOR1, O75376 (O75376 whole entry): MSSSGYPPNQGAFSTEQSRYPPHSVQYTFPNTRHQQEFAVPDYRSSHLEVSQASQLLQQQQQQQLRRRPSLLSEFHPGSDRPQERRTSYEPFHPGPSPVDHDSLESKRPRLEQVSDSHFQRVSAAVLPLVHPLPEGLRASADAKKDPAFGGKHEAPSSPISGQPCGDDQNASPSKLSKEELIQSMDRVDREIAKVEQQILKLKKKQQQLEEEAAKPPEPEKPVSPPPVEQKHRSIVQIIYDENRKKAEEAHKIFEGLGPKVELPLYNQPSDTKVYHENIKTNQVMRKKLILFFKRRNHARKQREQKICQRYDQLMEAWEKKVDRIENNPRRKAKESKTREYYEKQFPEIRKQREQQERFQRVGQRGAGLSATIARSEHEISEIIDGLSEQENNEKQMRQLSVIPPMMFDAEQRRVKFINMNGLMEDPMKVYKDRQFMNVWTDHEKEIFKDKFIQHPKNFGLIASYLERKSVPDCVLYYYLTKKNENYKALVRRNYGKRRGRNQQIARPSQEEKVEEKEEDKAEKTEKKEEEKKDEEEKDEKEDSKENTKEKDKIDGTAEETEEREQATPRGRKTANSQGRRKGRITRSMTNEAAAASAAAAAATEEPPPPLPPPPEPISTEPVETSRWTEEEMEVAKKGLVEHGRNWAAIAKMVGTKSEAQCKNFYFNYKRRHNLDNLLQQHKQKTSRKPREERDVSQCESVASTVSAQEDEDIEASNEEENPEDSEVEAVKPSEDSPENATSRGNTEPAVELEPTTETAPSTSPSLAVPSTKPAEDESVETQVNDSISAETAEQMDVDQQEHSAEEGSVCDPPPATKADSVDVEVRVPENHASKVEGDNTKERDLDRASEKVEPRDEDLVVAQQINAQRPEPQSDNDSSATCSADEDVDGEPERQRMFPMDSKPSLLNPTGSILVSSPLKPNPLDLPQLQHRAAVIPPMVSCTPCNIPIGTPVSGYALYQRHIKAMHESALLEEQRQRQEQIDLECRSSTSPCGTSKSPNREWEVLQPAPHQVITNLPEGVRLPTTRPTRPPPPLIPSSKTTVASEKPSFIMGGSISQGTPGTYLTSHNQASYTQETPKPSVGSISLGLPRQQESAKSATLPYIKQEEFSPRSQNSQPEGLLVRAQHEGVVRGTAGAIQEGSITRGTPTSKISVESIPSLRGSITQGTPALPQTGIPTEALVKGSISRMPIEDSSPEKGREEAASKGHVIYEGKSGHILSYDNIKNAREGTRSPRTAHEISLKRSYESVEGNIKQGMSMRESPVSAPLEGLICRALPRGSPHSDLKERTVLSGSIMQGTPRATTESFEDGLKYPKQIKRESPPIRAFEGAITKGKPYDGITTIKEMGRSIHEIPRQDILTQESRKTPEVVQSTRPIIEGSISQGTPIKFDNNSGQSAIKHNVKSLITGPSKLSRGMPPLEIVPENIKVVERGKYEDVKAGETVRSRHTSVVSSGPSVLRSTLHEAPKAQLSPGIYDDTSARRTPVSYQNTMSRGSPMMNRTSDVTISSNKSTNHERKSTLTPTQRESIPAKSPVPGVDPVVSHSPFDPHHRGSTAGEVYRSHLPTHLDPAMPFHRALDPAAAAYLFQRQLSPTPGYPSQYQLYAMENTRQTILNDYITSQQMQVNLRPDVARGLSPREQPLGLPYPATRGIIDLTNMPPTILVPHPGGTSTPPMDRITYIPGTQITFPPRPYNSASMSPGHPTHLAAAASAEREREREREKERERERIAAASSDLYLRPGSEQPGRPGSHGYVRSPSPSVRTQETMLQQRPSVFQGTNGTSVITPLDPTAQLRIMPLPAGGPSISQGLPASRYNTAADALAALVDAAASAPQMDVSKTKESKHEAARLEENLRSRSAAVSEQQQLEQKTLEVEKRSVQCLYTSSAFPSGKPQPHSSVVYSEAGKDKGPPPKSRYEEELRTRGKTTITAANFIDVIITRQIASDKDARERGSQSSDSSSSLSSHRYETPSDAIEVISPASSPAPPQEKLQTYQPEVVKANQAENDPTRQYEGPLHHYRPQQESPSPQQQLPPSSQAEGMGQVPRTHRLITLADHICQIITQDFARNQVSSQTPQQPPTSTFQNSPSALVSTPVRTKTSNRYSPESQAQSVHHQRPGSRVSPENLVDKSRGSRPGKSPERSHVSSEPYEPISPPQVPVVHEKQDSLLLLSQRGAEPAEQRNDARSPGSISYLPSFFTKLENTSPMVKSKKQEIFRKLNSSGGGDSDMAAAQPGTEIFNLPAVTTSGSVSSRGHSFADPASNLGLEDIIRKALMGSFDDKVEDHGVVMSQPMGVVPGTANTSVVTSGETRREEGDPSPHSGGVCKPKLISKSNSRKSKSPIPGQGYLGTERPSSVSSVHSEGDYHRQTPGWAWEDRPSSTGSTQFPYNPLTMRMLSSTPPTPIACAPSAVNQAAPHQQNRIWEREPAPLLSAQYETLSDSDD
row,Variant,effect of a mutation on the interaction
1,Q170A,decreasing interaction
2,F136A,decreasing interaction
3,F129K,decreasing interaction

# The next lines start with the values.
row,effect of a mutation on the interaction,Variant
1,decreasing interaction,T173Q
2,decreasing interaction,L177A
3,decreasing interaction,F175A
